Results from patent US20080085261A1, “Vaccine Adjuvant” (priority 2004, published 2008).

Test system: T regulatory phenotype cells
Set-up: species or system non-human primate
Settings: in vivo

B1: daclizumab (antibody, chains of the INN, looked up, V domains shown)
VH: QVQLVQSGAEVKKPGSSVKVSCKASGYTFTSYRMHWVRQAPGQGLEWIGYINPSTGYTEYNQKFKDKATITADESTNTAYMELSSLRSEDTAVYYCARGGGVFDYWGQGTLVTVSS
VL: DIQMTQSPSTLSASVGDRVTITCSASSSISYMHWYQQKPGKAPKLLIYTTSNLASGVPARFSGSGSGTEFTLTISSLQPDDFATYYCHQRSTYPLTFGQGTKVEVK
time of maximum depletion in % and number of T regulatory phenotype cells: 2 weeks | time until which depletion of T regulatory phenotype cells lasted: 4 weeks
